In PMC5282591, “The differential ability of asparagine and glutamine in promoting the closed/active enzyme conformation rationalizes the Wolinella succinogenes L-asparaginase substrate specificity” (Scientific Reports, 2017):
Where a chain is given by its changes, count along the chain named. In names and notes the source's numbering stands.

B1: WoA-S121 (Wolinella succinogenes L-asparaginase) (Wolinella succinogenes DSM 1740) (protein)
chain: MAKPQVTILATGGTIAGSGESSVKSSYSAGAVTVDKLLAAVPAINDLATIKGEQISSIGSQEMTGKVWLKLAKRVNELLAQKETEAVIITHGTDTMEETAFFLNLTVKSQKPVVLVGAMRSGSSMSADGPMNLYNAVNVAINKASTNKGVVIVMNDEIHAAREATKLNTTAVNAFASPNTGKIGTVYYGKVEYFTQSVRPHTLASEFDISKIEELPRVDILYAHPDDTDVLVNAALQAGAKGIIHAGMGNGNPFPLTQNALEKAAKSGVVVARSSRVGSGSTTQEAEVDDKKLGFVATESLNPQKARVLLMLALTKTSDREAIQKIFSTY
notes: recombinant, pET28 vector, E. coli BL21-AI; 330 residues per protomer; tetramer (dimer of dimers)
B2: WoA-S121 (Wolinella succinogenes L-asparaginase) (Wolinella succinogenes DSM 1740; S121P) (protein)
chain: B1 chain with S121P
notes: as for B1

What was measured:
Assay in all cases: purified protein
Conditions in all cases: 37 °C
[1] = substrate: NC(=O)C[C@H](N)C(=O)O; type: biochemical, Wolinella succinogenes
[2] = substrate: NC(=O)CC[C@H](N)C(=O)O
[3] = substrate: NC(=O)CC[C@H](N)C(=O)O; type: biochemical, Wolinella succinogenes

Row | Protein | Km [1] | kcat [1] | kcat/Km [1] | Km [2] | kcat [2] | kcat/Km [2] | Km [3] | kcat [3] | kcat/Km [3]
1 | B1 | 21.7 ± 1.2 µM | 97.8 ± 1 s⁻¹ | 4.5e+06 ± 250000 M⁻¹ s⁻¹ | 380 ± 50 µM | 1.58 s⁻¹ | 4200 M⁻¹ s⁻¹ | – | – | –
2 | B2 | 23.6 ± 1.1 µM | 86.7 ± 0.8 s⁻¹ | 3.7e+06 ± 170000 M⁻¹ s⁻¹ | – | – | – | 320 ± 20 µM | 11.33 ± 0.11 s⁻¹ | 35300 ± 2240 M⁻¹ s⁻¹
